Our source for the Kd values is publication PMC10138348, “Continuous Fluorescent Sirtuin Activity Assay Based on Fatty Acylated Lysines” (International Journal of Molecular Sciences, 2023).

This experiment addresses F4, TNFα-derived peptide with a myristoylated lysine and fluorescein-labelled cysteine in the +2 position. Description: fluorescence polarisation; SIRT2 in serial dilution from 1.6 µM, F4 10 nM, no NAD+, BSA from zero to 300 µM; 384-well plate, 20 mM Tris-HCl pH 7.8, 150 mM NaCl, 5 mM MgCl2; three independent replicates. On the technique in general: Polarisation of emitted light reports the rotation of a fluorescent probe.

B1: SIRT2 (enzyme)
chain: MAEPDPSHPLETQAGKVQEAQDSDSDSEGGAAGGEADMDFLRNLFSQTLSLGSQKERLLDELTLEGVARYMQSERCRRVICLVGAGISTSAGIPDFRSPSTGLYDNLEKYHLPYPEAIFEISYFKKHPEPFFALAKELYPGQFKPTICHYFMRLLKDKGLLLRCYTQNIDTLERIAGLEQEDLVEAHGTFYTSHCVSASCRHEYPLSWMKEKIFSEVTPKCEDCQSLVKPDIVFFGESLPARFFSCMQSDFLKVDLLLVMGTSLQVQPFASLISKAPLSTPRLLINKEKAGQSDPFLGMIMGLGGGMDFDSKKAYRDVAWLGECDQGCLALAELLGWKKELEDLVRREHASIDAQSGAGVPNPSTSASPKKSPPPAKDEARTTEREKPQ
By Kd is commonly meant the free concentration of one partner at which half of the binding sites on the other are occupied at equilibrium, for simple one-to-one binding. Turning to B1, the dissociation constant (Kd) lay in the range of 7 to 18 nM.
